From patent US20240132615A1 (ICHNOS SCIENCES, published 2024) come the findings set out here.

In experiment [1] the target is T1, Biotinylated Human CD38 Protein, Avitag, His Tag (Acrobiosystems CD8-H82E7) (human, UniProt P28907 43-300, biotinylated).
T1 construct: bought protein; also called biotinylated recombinant human CD38 protein; human CD38-avi-his
Nature of the experiment: SPR, Fab as analyte, immobilised biotinylated human CD38.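 Note: biacore T200 at 25 °C, single-cycle kinetics with Fab from 7.8 to 2000 nM, 3 min association then 5 min dissociation, fitted with a 1:1 Langmuir model.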 In general terms: SPR reads the build-up and loss of mass on a sensor chip optically.
Procedure: (§1) Surface plasmon resonance (SPR) was used to measure the binding affinities of the Fab fragments for human and cynomolgus monkey CD38. Affinities were measured on a Biacore T200 instrument (Cytiva Life Sciences) at 25° C. and analyzed with the Biacore T200 Evaluation Software (v3.1).
(§2) The affinities to human and cynomolgus monkey CD38 were assessed by immobilizing CD38 and using Fab fragments as analyte. […] Fab fragments were injected in single cycle kinetic at different concentrations ranging from 7.8 to 2000 nM, in HBS-EP+ buffer (Cytiva Life Sciences, catalog NO: BR100669) at a flow rate of 30 μl/min for 3 min on flow-path 1 and 2 (flow-path 1 being used as reference). Dissociation was monitored for 5 min. […] Experimental data were processed using the 1:1 Langmuir kinetic fitting model.

Experiment [2] concerns the target T2, recombinant human CD38 antigen for crystallography (hsCD38 ECD) (human, UniProt P28907 45-300).
T2 construct: also called ectodomain of hsCD38
The experiment in a line: X-ray crystal structure of the complex, 3.4 Å.
Procedure: The Fab/hsCD38 complex was concentrated to ˜11 mg/mL. […] Drops consisting of 1 μL protein+1 μL precipitant were set up at 20° C., and crystals appeared within 3-7 days. The resulting crystals were cryoprotected by soaking in well solution supplemented with 35% ethylene glycol, then flash cooled and stored in liquid nitrogen until data collection. Diffraction data were collected at the Swiss Light Source (SLS). […] The structure was determined by molecular replacement with Phaser.

The target in experiment [3] is T3, recombinant cynomolgus monkey CD38-ECD-C-his protein (cynomolgus monkey, UniProt Q5VAN0 45-301).
T3 construct: made in house; Q5VAN0 residues 43-301 (residue 44 deleted) with C-terminal 6-His; also called cynomolgus monkey CD38-C-His; recombinant cynomolgus monkey CD38 protein
Nature of the experiment: SPR, Fab as analyte, captured cynomolgus CD38-his.
Procedure: as §1, §2

Experiment [4] concerns the target T4, human BCMA on multiple myeloma cells (human, UniProt Q02223 1-184).
T4 construct: whole, on cells; Here the protein is the cell lines' own; also called B-cell maturation antigen; TNFRSF17
T4 sequence (looked up): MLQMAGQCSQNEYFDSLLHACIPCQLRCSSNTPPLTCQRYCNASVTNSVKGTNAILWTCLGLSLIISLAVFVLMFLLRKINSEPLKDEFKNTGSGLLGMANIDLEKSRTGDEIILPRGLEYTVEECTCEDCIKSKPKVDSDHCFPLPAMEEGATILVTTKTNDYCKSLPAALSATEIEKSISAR
Nature of the experiment: flow cytometry on NCI-H929 CD38 KO cells; one-site binding fit. On the technique in general: A flow cytometer gives signals particle by particle.
Procedure: (§3) The plates were centrifuged at 350 g for 3 min at 4° C. and cells washed twice with DPBS.
(§4) Cells were resuspended in 25 μl of LIVE/DEAD Fixable Near-IR Dead Cell Stain (ThermoFisher Scientific, L34976) diluted at 1/1′000 in DPBS and incubated 20 min at 4° C. […] Cells were then washed twice and resuspended in 25 μl of FACS buffer with azide. Samples were acquired on an iQue Screener Plus instrument (IntelliCyt). Cells were gated based on size on FSC vs SSC and debris, doublets and dead cells were excluded. Population was analyzed for APC-geometric mean (geomean) fluorescence intensity (MFI) using iQue Forecyt® software. Only samples showing at least 2′000 cells in final gate were considered in the further steps of the analysis. Relative geometric mean fluorescence intensity (RFI) was calculated by subtracting the MFI of the negative control from the MFI of the sample at each dilution. RFI values were finally plotted using Prism software (GraphPad). Equilibrium dissociation constant values (KD) and maximum binding were determined by using one-site binding curve fitting on non-transformed data (Prism).

The target of experiment [5] is T4, human BCMA on multiple myeloma cells. The experiment in a line: flow cytometry on NCI-H929 WT cells; one-site binding fit.
Procedure: as §3, §4
The target of experiment [6] is T5, human CD3 on primary human T cells (human, UniProt P07766 23-207; P04234 22-171; P09693 23-182; P20963 22-164).
T5 construct: whole, on cells; Endogenous CD3 complex on isolated human T cells, gated CD38-negative; also called CD3-expressing T cells; human CD38 negative T cells
T5 sequence (P07766 23-207, chain 1 of 4): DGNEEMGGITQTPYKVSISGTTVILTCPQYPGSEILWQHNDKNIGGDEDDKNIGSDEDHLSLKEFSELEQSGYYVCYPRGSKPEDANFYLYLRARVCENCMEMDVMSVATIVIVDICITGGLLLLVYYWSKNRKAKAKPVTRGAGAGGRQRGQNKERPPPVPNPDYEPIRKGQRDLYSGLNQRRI
T5 sequence (P04234 22-171, chain 2 of 4): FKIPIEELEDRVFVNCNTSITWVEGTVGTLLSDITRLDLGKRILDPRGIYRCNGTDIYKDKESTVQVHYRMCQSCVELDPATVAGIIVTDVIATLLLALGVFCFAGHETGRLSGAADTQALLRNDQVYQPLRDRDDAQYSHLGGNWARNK
T5 sequence (P09693 23-182, chain 3 of 4): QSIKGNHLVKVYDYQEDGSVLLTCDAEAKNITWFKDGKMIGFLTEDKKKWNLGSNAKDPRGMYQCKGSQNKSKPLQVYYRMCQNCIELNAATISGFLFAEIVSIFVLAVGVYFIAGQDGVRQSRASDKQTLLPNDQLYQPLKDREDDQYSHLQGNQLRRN
T5 sequence (P20963 22-164, chain 4 of 4): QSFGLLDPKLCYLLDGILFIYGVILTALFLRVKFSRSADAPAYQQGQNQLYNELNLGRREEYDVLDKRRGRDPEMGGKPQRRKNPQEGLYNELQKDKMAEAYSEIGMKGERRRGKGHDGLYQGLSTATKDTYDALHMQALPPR
Nature of the experiment: flow cytometry on isolated human T cells (CD38-negative gate), anti-human IgG secondary, relative fluorescence (RFI).

Experiment [7] concerns the target T4, human BCMA on multiple myeloma cells. The experiment in a line: flow cytometry on NCI-H929 CD38 KO cells (BCMA++CD38-), anti-human IgG secondary, RFI.
Procedure: as §3, §4
Experiment [8] addresses T5, human CD3 on primary human T cells. The experiment in a line: flow cytometry on isolated human primary T cells gated CD38-negative; one-site binding fit.
Procedure: Cells were thawed in pre-warmed complete RPMI medium (RPMI supplemented with 10% heat inactivated fetal calf serum, 1% L-Glutamine, 1% Non-essential Amino Acids, 1% Sodium Pyruvate, and 1% Penicillin/Streptomycin) and rested overnight at 1.5×10⁶ cells/ml. Cells were plated at 1×10⁵ cells/well in 96-well round-bottom plates. The plates were centrifuged at 350 g for 3 min at 4° C. and cells washed twice with DPBS. Cells were resuspended in 25 μl of LIVE/DEAD Fixable Near-IR Dead Cell Stain (ThermoFisher Scientific, L34976) diluted at 1/1′000 in DPBS and incubated 20 min at 4° C. […] Cells were then washed twice and resuspended in 25 μl of FACS buffer with azide. Samples were acquired on an iQue Screener Plus instrument (IntelliCyt). Cells were gated based on size on FSC vs SSC and debris, doublets and dead cells were excluded. Finally, viable cells were gated on CD38-T cells. The population was analyzed for PE-geometric mean (geomean) fluorescence intensity (MFI) using iQue Forecyt© software. Only samples showing at least 2′000 cells in final gate were considered in the further steps of the analysis. Relative geometric mean fluorescence intensity (RFI) was calculated per donor by subtracting the mean of MFI of the negative control from the MFI of the sample at each dilution. RFI values were finally plotted using Prism software (GraphPad). Equilibrium dissociation constant values (KD) and maximum binding were determined by using one-site binding curve fitting on non-transformed data (Prism). […] Two independent experiments were performed.
Experiment [9] addresses T4, human BCMA on multiple myeloma cells. Nature of the experiment: flow cytometry on MOLP-8 cells; one-site binding fit.
Experiment [10] has the same target. The experiment in a line: flow cytometry on KMS-12-BM cells; one-site binding fit.
Procedure: as §3, §4
The target is the same in experiment [11]. The experiment in a line: flow cytometry on KMS-12-BM cells (BCMA+CD38+), anti-human IgG secondary, RFI.
Procedure: as §3, §4
The target is the same in experiment [12]. The experiment in a line: flow cytometry on NCI-H929 cells (BCMA++CD38++), anti-human IgG secondary, RFI.
Procedure: as §3, §4

B1: Anti-CD38-UCP03-B3 FAB (Fab, V domains shown)
VH: QVQLVQSGAEVKKPGSSVKVSCKASGGDFTLYSISWVRQAPGQGLEWMGRIIPTGANANYAQKFQGRVTITADESTSTAYMELSSLRSEDTAVYYCARSWPSLGSGWFDIWGQGTLVTVSS
VL: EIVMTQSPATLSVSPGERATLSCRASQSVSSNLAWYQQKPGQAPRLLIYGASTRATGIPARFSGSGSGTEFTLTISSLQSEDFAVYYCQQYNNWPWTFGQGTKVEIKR
notes: Fab; also called anti-CD38-B3; anti-CD38-B3 Fab
As to B1, the equilibrium dissociation constant (Kd) (in general, the equilibrium constant for the complex coming apart) in experiment [1] was 115 nM; in experiment [3], 170 nM. Moreover, in [2], the binding result is reported as “binds”.

B2: teclistamab (bispecific antibody)
chain 1: not shown
chain 2: SYVLTQPPSVSVAPGQTARITCGGNNIGSKSVHWYQQPPGQAPVVVVYDDSDRPSGIPERFSGSNSGNTATLTISRVEAGDEAVYYCQVWDSSSDHVVFGGGTKLTVLGQPKAAPSVTLFPPSSEELQANKATLVCLISDFYPGAVTVAWKGDSSPVKAGVETTTPSKQSNNKYAASSYLSLTPEQWKSHRSYSCQVTHEGSTVEKTVAPTECS
chain 3: EVQLVESGGGLVQPGGSLRLSCAASGFTFNTYAMNWVRQAPGKGLEWVARIRSKYNNYATYYAASVKGRFTISRDDSKNSLYLQMNSLKTEDTAVYYCARHGNFGNSYVSWFAYWGQGTLVTVSSASTKGPSVFPLAPCSRSTSESTAALGCLVKDYFPEPVTVSWNSGALTSGVHTFPAVLQSSGLYSLSSVVTVPSSSLGTKTYTCNVDHKPSNTKVDKRVESKYGPPCPPCPAPEAAGGPSVFLFPPKPKDTLMISRTPEVTCVVVDVSQEDPEVQFNWYVDGVEVHNAKTKPREEQFNSTYRVVSVLTVLHQDWLNGKEYKCKVSNKGLPSSIEKTISKAKGQPREPQVYTLPPSQEEMTKNQVSLTCLVKGFYPSDIAVEWESNGQPENNYKTTPPVLDSDGSFLLYSKLTVDKSRWQEGNVFSCSVMHEALHNHYTQKSLSLSLGK
chain 4: QTVVTQEPSLTVSPGGTVTLTCRSSTGAVTTSNYANWVQQKPGQAPRGLIGGTNKRAPGTPARFSGSLLGGKAALTLSGVQPEDEAEYYCALWYSNLWVFGGGTKLTVLGQPKAAPSVTLFPPSSEELQANKATLVCLISDFYPGAVTVAWKADSSPVKAGVETTTPSKQSNNKYAASSYLSLTPEQWKSHRSYSCQVTHEGSTVEKTVAPTECS
Take B2: the Kd stood at 46.3 nM in experiment [4]; 30.4 nM in [5]; 18 nM in experiment [8]; 95.8 nM in experiment [9]; 21.8 nM in experiment [10]. In addition, the EC50 (read off the curve) – broadly, the concentration needed to bring the measured effect to its halfway point – was about 20 nM in experiment [6], about 40 nM in experiment [7], about 20 nM in experiment [11] and about 30 nM in experiment [12].
